This passage reports EC50 (read off the curve) and % Max Inhibition, PAR1 peptide SFLLR-NH2 challenge, IP-One results from patent publication US20250313621A1.

The target in assay [1] is Wildtype human PAR2 expressed on cells (human) (UniProt P55085). Description: flow cytometry on HEK293F-humanPAR2 (3.0E+06 cells/mL, w/ NaN3), overnight at about 5 C, S/BG.
The target of assay [2] is Cynomolgus PAR2 on BacMam-infected HEK293 cells (cynomolgus). Kind of assay: flow cytometry on HEK293F-cynoPAR2 (3.0E+06 cells/mL, w/ NaN3), overnight at about 5 C, S/BG [continued]. (In flow cytometry, cells or beads pass a laser one at a time.)
The target of assay [3] is Wildtype human PAR2 expressed on cells (human) (UniProt P55085). Kind of assay: cell-based or functional assay.

Wildtype human PAR2 expressed on cells (human), sequence (P55085 37-397 limits assumed): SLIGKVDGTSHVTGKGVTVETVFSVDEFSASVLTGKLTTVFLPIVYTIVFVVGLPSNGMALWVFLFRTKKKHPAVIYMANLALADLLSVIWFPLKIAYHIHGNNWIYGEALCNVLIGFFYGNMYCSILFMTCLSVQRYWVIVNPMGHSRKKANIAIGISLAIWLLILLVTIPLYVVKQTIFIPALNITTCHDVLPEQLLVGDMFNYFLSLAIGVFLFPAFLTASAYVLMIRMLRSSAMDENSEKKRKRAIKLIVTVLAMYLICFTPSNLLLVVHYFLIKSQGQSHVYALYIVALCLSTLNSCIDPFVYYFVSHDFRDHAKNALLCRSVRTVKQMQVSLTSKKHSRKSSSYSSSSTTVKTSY

B1: Benchmark 3 IgG (antibody, from another filing, V domains shown)
VH: QVQLVESGGGVVQPGRSLRLSCVASGFTFSRYGIHWVRQAPGKGLEWVIVISYDGINKYYADSVKGRFTISRDNSKNTVYLQMNSLRAEDTAVYYCAKGDFWSGYFDYWGQGTLVTVSS
VL: DIVMTQTPLSSPVTLGQPASISCRSSQSLVHSDGNTYLSWLHQRPGQPPRLLIYKISNRFSGVPDRFSGSGAGTDFTLQISRVEAEDVGIYYCMQATQFPTFGGGTKVEIK
A word on the EC50 (read off the curve): it is the concentration giving half of the maximal effect. Read a high EC50 (read off the curve) as a need for much substance. As to B1, the EC50 (read off the curve) was 1 nM in assay [1] and 2 nM in assay [2].

B2: Benchmark 2 (antibody, from another filing, V domains shown)
VH: EVQLLESGGGLVQPGGSLRLSCAASGFTFSSYAMNWVRQAPGKGLEWVSTISYHGSHISYHDSVHHRFTISRDNSKNTLYLQMNSLRAEDTAVYYCARIHHDPMDVWGQGTLVTVSS
VL: SIELTQPPSVSVSPGQTASITCSGDNLGKKYVQWYQQKPGQSPVLVIYDDSNRPSGIPERFSGSNSGNTATLTISGTQAMDEADYYCQTWDGNPTTGETNVFGGGTKLTVL
The molecule B2 came in with a % Max Inhibition, PAR1 peptide SFLLR-NH2 challenge, IP-One in assay [3] of 3%.

B3: Benchmark 4 IgG (antibody, from another filing, V domains shown)
VH: EVQLVQSGAEVKKPGESLKISCKGSGYNFISHWIGWVRQMPGKGLEWMGMIYPGDSDTRYSPSFQGQVTISADKSINTAYLQWRSLKASDTAMYFCARHGGITGTTFYYDFGMDVWGQGTTVTVSS
VL: SYELTQPPSVSVSPGQTARITCSGDALPKQYASWYQQKPGQAPLLVIYRDSERPSGLPERFSGSSSGTTVTLTISGVQAEDEADYYCQSADSGGSYVFGTGTKVTVL
Regarding B3, the EC50 (read off the curve) in assay [1] and in assay [2] was 1 nM throughout.
